# According to PMC3998876:
# Molecular target: biotinylated mouse Izumo1Cd4d3+4 (entire ectodomain, bait form) (mouse) (UniProt Q9D9J7)
# Test: SPR
# Chain of UniProt Q9D9J7 (Q9D9J7 22-319): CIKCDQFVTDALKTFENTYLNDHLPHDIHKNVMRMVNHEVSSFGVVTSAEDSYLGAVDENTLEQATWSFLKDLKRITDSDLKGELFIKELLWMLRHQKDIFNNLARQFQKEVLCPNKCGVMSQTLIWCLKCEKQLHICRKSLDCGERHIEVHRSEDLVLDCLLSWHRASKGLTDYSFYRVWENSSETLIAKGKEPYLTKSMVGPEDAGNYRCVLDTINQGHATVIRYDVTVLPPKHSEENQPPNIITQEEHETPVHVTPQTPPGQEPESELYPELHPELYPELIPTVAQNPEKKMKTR
substance,measurement,value
mouse JunoCd4d3+4-6His (purified soluble Juno ectodomain) (from UniProt Q9EQF4 20-222) (domain or fragment),Kd,12 µM
